Tests used:
[1] = target: C-terminal domains of the flavodiiron protein CD1623 from Clostridium difficile 630 (FDP_F_Cter), residues 401-843 (Clostridium difficile 630); test: SEC; each protein loaded separately at room temperature on a 25 mL Superdex S-200 10/300 GL column; 20 mM Tris-HCl pH 7.5, 18% glycerol, 150 mM NaCl; calibrated with mass standards; data not shown
[2] = target: Class F flavodiiron protein CD1623 from Clostridium difficile 630 (FDP_F) (Clostridium difficile 630); test: as above

stoichiometry N [1]	stoichiometry N [2]	Substance
2		C-terminal domains of the flavodiiron protein CD1623 from Clostridium difficile 630 (FDP_F_Cter), residues 401-843 (domain or fragment)
	2	Class F flavodiiron protein CD1623 from Clostridium difficile 630 (FDP_F) (enzyme)
